Measured values published in PMC4345975.

Target: GFP–cyclin A (human) (UniProt P20248)
Experiment: fluorescence cross-correlation spectroscopy

UniProt P20248, sequence (P20248 whole entry): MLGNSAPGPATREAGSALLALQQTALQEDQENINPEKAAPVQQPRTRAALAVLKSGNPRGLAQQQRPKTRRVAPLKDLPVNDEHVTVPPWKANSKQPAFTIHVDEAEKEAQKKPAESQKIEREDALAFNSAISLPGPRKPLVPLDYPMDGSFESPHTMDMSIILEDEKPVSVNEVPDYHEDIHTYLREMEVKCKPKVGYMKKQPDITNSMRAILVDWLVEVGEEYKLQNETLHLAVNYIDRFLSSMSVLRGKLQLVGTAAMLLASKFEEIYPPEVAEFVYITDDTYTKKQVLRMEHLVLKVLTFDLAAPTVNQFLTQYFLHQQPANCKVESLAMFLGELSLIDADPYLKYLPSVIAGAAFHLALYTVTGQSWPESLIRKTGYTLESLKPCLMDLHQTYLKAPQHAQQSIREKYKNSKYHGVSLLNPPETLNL

For “mCherry–SAMHD1 (from UniProt Q9Y3Z3 1-626) (natural protein)”, which cross-correlation is on record?
The cross-correlation was 9.9%.
